The data set relates to eIF4G HEAT1 domain. The experiment in a line: MST.

pKd: −log10 of the molar value.

The pKd is −log10 of the Kd, conventionally taken in molar units.

With 5'tiRNAAla, the pKd is 6.39.

The values above are taken from paper PMC7293036.
